Laboratory results from paper PMC11696179, “Molecular condensation of the CO/NF-YB/NF-YC/FT complex gates floral transition in Arabidopsis” (The EMBO Journal, 2024).

T1: mCherry-CO (CONSTANS), recombinant (Arabidopsis thaliana, UniProt Q39057 1-373)
T1 construct: CONSTANS (CO), Arabidopsis thaliana; No tag cleavage step is described; also called SUMO-mCherry-CO; source: E. coli Rosetta pLysS, purified (HisTrap; size exclusion when necessary); not shown: mCherry, N-terminal, kept
T1 sequence (looked up): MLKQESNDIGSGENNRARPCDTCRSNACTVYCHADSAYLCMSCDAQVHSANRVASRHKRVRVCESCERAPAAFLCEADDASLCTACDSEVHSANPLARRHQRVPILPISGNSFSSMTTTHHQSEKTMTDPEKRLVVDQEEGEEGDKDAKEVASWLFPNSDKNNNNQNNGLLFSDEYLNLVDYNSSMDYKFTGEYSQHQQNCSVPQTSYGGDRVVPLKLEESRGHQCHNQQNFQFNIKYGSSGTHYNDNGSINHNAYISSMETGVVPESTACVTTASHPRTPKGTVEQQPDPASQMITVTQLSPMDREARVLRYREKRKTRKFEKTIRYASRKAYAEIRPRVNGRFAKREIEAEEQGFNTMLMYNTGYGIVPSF

T2: NF-YC9-GFP, recombinant (Arabidopsis thaliana, UniProt Q8L4B2 1-231)
T2 chain: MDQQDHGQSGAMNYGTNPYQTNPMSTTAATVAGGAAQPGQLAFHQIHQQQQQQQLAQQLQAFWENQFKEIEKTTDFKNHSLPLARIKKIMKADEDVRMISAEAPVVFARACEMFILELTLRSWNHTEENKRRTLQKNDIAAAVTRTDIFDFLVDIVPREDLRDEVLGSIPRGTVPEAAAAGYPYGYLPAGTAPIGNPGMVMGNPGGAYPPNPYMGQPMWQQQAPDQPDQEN

T3: CO/NF-YC9 mixture (mCherry-CO with NF-YC9-GFP), immobilised together (Arabidopsis thaliana, UniProt Q39057 1-373; Q8L4B2 1-231)
T3 chain 1: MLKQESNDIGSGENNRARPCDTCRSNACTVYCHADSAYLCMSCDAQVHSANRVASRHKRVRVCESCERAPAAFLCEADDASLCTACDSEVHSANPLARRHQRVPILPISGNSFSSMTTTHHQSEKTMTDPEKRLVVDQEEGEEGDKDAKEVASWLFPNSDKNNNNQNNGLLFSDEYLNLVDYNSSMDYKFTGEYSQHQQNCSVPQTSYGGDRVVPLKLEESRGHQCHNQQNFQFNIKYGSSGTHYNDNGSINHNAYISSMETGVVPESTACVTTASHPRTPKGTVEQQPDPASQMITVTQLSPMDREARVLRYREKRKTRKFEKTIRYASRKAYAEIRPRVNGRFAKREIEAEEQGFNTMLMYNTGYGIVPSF
T3 chain 2: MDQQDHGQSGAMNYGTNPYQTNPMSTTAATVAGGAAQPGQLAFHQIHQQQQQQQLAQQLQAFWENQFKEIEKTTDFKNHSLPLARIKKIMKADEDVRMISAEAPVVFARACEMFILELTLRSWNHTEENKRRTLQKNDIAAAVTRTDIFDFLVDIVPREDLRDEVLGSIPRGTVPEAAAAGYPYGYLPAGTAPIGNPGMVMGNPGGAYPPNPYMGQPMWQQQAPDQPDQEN

B1: NF-YC9-GFP, recombinant (natural protein, Arabidopsis thaliana, UniProt Q8L4B2 1-231, looked up)
chain: MDQQDHGQSGAMNYGTNPYQTNPMSTTAATVAGGAAQPGQLAFHQIHQQQQQQQLAQQLQAFWENQFKEIEKTTDFKNHSLPLARIKKIMKADEDVRMISAEAPVVFARACEMFILELTLRSWNHTEENKRRTLQKNDIAAAVTRTDIFDFLVDIVPREDLRDEVLGSIPRGTVPEAAAAGYPYGYLPAGTAPIGNPGMVMGNPGGAYPPNPYMGQPMWQQQAPDQPDQEN
notes: Nuclear Factor-Y subunit C9 (NF-YC9), Arabidopsis thaliana; No tag cleavage step is described; also called MBP-NF-YC9-GFP; source: E. coli Rosetta pLysS, purified (HisTrap; size exclusion when necessary); not shown: GFP, C-terminal, kept
B2: mCherry-CO (CONSTANS), recombinant (natural protein)
chain: MLKQESNDIGSGENNRARPCDTCRSNACTVYCHADSAYLCMSCDAQVHSANRVASRHKRVRVCESCERAPAAFLCEADDASLCTACDSEVHSANPLARRHQRVPILPISGNSFSSMTTTHHQSEKTMTDPEKRLVVDQEEGEEGDKDAKEVASWLFPNSDKNNNNQNNGLLFSDEYLNLVDYNSSMDYKFTGEYSQHQQNCSVPQTSYGGDRVVPLKLEESRGHQCHNQQNFQFNIKYGSSGTHYNDNGSINHNAYISSMETGVVPESTACVTTASHPRTPKGTVEQQPDPASQMITVTQLSPMDREARVLRYREKRKTRKFEKTIRYASRKAYAEIRPRVNGRFAKREIEAEEQGFNTMLMYNTGYGIVPSF

Columns and labels:
[1] = molecular target: the molecule itself; test: SPR; bivalent model
[2] = molecular target: the molecule itself; test: SPR; bivalent model, kd1
[3] = molecular target: T1, mCherry-CO (CONSTANS), recombinant; test: single-particle colocalisation by TIRF microscopy; 10 nM of each of two recombinant proteins mixed in 20 mM HEPES, 150 mM NaCl, pH 7.4 for 5 min, put on cover glass; conditions: both partners purified
[4] = molecular target: the molecule itself; test: SPR; Biacore T200, 25 °C; CO, NF-YC9 or a CO/NF-YC9 mixture (4:1) amine-coupled to a CM5 chip (1000-2000 RU); analytes NF-YB2, CO, NF-YC9 in twofold dilutions; HBST (10 mM HEPES, 150 mM NaCl, 3 mM EDTA, 0.05% Tween 20, pH 7.4); bivalent analyte model
[5] = molecular target: T2, NF-YC9-GFP, recombinant; test: SPR; bivalent model
[6] = molecular target: T2, NF-YC9-GFP, recombinant; test: SPR; bivalent model, kd1
[7] = molecular target: B2; test: SPR; bivalent model
[8] = molecular target: T3, CO/NF-YC9 mixture (mCherry-CO with …); test: SPR; bivalent model
[9] = molecular target: B2; test: SPR; bivalent model, kd1
[10] = molecular target: T3, CO/NF-YC9 mixture (mCherry-CO with …); test: SPR; bivalent model, kd1
[11] = molecular target: B1; test: SPR; Biacore T200, 25 °C; CO, NF-YC9 or a CO/NF-YC9 mixture (4:1) amine-coupled to a CM5 chip (1000-2000 RU); analytes NF-YB2, CO, NF-YC9 in twofold dilutions; HBST (10 mM HEPES, 150 mM NaCl, 3 mM EDTA, 0.05% Tween 20, pH 7.4); bivalent analyte model; conditions: both partners purified
[12] = molecular target: T1, mCherry-CO (CONSTANS), recombinant; test: as above; conditions: both partners purified
[13] = molecular target: B1; test: single-particle colocalisation by TIRF microscopy; 10 nM of each of two recombinant proteins mixed in 20 mM HEPES, 150 mM NaCl, pH 7.4 for 5 min, put on cover glass; conditions: both partners purified

binding result [3] | Kd [5] [nM] | koff [6] [s⁻¹] | Kd [7] [nM] | Kd [8] [nM] | koff [9] [s⁻¹] | koff [10] [s⁻¹] | binding result [11] | binding result [12] | binding result [13] | Binder | Kd [1] [nM] | koff [2] [s⁻¹] | binding result [4]
binds | – | – | – | – | – | – | – | – | – | B1 | 27.8 | 0.0017 | binds
– | 53.6 | 0.00138 | – | – | – | – | – | – | – | B2 | 53.8 | 0.0014 | –
– | 41.6 | 0.00173 | 100 | 40.6 | 0.00202 | 0.00139 | binds | binds | – | NF-YB2, recombinant (natural protein, Arabidopsis thaliana, UniProt Q9FGJ3 1-190, looked up, Nuclear Factor-Y subunit B2 (NF-YB2), Arabidopsis thaliana; Unlabelled form, as used in SPR; also called His-NF-YB2; source: E. coli Rosetta pLysS, purified (HisTrap; size exclusion when necessary)) MGDSDRDSGGGQNGNNQNGQSSLSPREQDRFLPIANVSRIMKKALPANAKISKDAKETMQECVSEFISFVTGEASDKCQKEKRKTINGDDLLWAMTTLGFEDYVEPLKVYLQRFREIEGERTGLGRPQTGGEVGEHQRDAVGDGGGFYGGGGGMQYHQHHQFLHQQNHMYGATGGGSDSGGGAASGRTRT | 23.7 | 0.00137 | –
binds | – | – | – | – | – | – | – | – | binds | NF-YB2, recombinant, labelled with Alexa Fluor 647 (natural protein, Arabidopsis thaliana, UniProt Q9FGJ3 1-190, looked up, Alexa Fluor 647 label (site not stated), Nuclear Factor-Y subunit B2 (NF-YB2), Arabidopsis thaliana; Same construct as m3, with the dye, as used for TIRF single-particle imaging; also called NF-YB2 (labeled by Alexa fluor 647); NF-YB2 with Alex647; source: E. coli Rosetta pLysS, purified (HisTrap; size exclusion when necessary)) MGDSDRDSGGGQNGNNQNGQSSLSPREQDRFLPIANVSRIMKKALPANAKISKDAKETMQECVSEFISFVTGEASDKCQKEKRKTINGDDLLWAMTTLGFEDYVEPLKVYLQRFREIEGERTGLGRPQTGGEVGEHQRDAVGDGGGFYGGGGGMQYHQHHQFLHQQNHMYGATGGGSDSGGGAASGRTRT | – | – | –
